The target in assay [1] is T1, full length human KLRG1 expressed on CHOK1 cells (CHOK1-hKLRG1) (human, UniProt Q96E93 1-195).
T1 construct: whole, on cells; also called killer cell lectin-like receptor G1
T1 sequence (looked up): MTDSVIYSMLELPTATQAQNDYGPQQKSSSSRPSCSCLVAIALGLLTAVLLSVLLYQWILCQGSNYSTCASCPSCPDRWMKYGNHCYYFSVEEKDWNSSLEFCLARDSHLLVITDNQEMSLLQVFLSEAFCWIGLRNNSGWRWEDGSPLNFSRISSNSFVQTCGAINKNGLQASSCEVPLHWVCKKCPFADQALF
Description: FACS on CHOK1-hKLRG1 cells, anti-human IgG-Alexa 488 detection. On the procedure: Binding of anti-KLRG1 monoclonal antibodies to cell expressed human and cynomolgus-KLRG1 is carried out by FACS. Chinese hamster ovary (CHO) cells are stably transfected to express full length human KLRG1 (CHOK1-hKLRG1)). CHOK1-hKLRG1 expressing cells were cultured and incubated with varying concentrations of either PA015 or control human IgG1. Cells were then centrifuged, the supernatant discarded, and washed with an incubation buffer (HBSS+2% FBS+10 mM Ca2+). Cells were resuspended and incubated with anti-human IgG-Alexa 488, washed, resuspended, and underwent FACS study.

Assay [2] has as its target T1, full length human KLRG1 expressed on …. Description: FACS competition on CHOK1-hKLRG1 cells; inhibition of E-cadherin-ECD-FC-biotin (0.3 uM) binding. The method, then:
The ability of monoclonal antibodies to inhibit E-cadherin/KLRG1 binding is measured by FACS.
CHOK1-hKLRG1 expressing cells were cultured and incubated with varying concentrations of either PA015 or control human IgG1. Recombinant human E-cadherin-ECD-FC-biotin at 0.3 μM was then added and incubated. Cells were then centrifuged, the supernatant discarded, and washed with an incubation buffer (HBSS+2% FBS+10 mM Ca2+). Cells were resuspended and incubated with Streptavidin-Alexa 488, washed, resuspended, and underwent FACS study.

Assay [3] has the same target. The assay can be described thus: FACS competition on CHOK1-hKLRG1 cells; inhibition of E-cadherin-ECD-FC-biotin (0.3 uM) binding (Example 7). On the procedure: CHOK1-hKLRG1 expressing cells were cultured and incubated with varying concentrations of PA015, HG1N01, HG1N02 or control human IgG1. Recombinant human E-cadherin-ECD-FC-biotin at 0.3 μM was then added and incubated. Cells were centrifuged, the supernatant discarded, and washed with an incubation buffer (HBSS+2% FBS+10 mM Ca2+). Cells were resuspended and incubated with Streptavidin-Alexa 488, washed, resuspended, and underwent FACS study.

For one molecule, EC50 and IC50 results are on record in patent publication US20240174754A1 (ABCURO, published 2024).

A word on the EC50: it is the concentration giving half of the maximal effect. A high value points to weaker potency. One may read the IC50 as the concentration that gives 50% inhibition. A high value points to lower potency.

B1: PA015 (antibody, human IgG1, kappa, V domains shown)
VH: QVTLRESGPALVKPTQTLTLTCTVSGFSLSTFGMGVGWIRQPPGKALEWLAHIWWDDDKWYELALKSRLTISKDTSKNQVVLTITNMDPVDTATYYCARVIYYGSRSAYYSMDYWGQGTTVTVSS
VL: DVVMTQTPLSLSVTPGQPASISCKSSQSIVHSNAHTYLEWYLQKPGQSPQLLIYKVSNRFSGVPDRFSGSGSGTDFTLKISRVEAEDVGVYYCFQGSHVPVTFGQGTKLEIKR
notes: also called PA015 antibody; anti-KLRG1 antibody PA015
B1 had an EC50 in assay [1] of 1.33 nM. The IC50 in assay [2] came out at 8.05 nM; in assay [3], 5.3 nM.
